The text below walks through data of US20120121591A1 (priority 2009, published 2012).

One experiment addresses human Kv1.3 (Homo sapiens, UniProt P22001). Briefly: cell-based or functional assay.
For the next experiment, the target named is human Kv1.1 (Homo sapiens, UniProt Q09470). The experiment can be described thus: cell-based or functional assay.
Sequence of human Kv1.1 (Q09470 whole entry): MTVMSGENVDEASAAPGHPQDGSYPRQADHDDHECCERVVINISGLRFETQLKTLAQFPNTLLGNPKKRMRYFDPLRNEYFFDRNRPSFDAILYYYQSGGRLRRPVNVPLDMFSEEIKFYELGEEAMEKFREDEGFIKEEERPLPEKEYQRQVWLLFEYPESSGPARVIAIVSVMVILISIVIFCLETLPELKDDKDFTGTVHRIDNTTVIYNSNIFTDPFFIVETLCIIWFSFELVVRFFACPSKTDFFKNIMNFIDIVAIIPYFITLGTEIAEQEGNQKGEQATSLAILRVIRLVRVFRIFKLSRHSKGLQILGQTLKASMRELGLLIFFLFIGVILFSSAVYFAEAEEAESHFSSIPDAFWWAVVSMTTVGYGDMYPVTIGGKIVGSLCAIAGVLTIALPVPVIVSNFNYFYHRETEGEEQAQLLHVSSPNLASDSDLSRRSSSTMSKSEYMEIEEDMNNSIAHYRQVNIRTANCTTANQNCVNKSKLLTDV

Sequence of human Kv1.3 (P22001 whole entry): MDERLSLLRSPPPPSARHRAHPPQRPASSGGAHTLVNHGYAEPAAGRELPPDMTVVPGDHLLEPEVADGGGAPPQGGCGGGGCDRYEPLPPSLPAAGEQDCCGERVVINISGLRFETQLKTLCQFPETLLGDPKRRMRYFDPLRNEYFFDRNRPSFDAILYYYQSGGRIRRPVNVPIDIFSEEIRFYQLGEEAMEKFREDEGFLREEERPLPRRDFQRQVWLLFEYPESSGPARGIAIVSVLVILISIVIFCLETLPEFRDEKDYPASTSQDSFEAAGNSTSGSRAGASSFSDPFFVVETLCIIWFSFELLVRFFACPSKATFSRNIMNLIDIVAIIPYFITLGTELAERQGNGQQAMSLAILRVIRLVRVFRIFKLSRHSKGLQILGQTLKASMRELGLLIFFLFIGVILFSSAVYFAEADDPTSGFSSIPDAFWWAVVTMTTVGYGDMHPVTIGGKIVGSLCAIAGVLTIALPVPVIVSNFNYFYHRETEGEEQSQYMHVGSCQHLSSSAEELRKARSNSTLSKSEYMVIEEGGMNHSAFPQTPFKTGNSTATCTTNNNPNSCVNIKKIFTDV

In the experiment with human Kv1.3, “[Glu4; Lys16,29; 1-Nal26;Arg30]ShK-amide (peptide)” displayed a Kv1.3 (IWQ) IC50 of 0.384 nM, a WB (IFNg) IC50 of 0.598 nM and a WB (IL-2) IC50 of 0.712 nM.

Regarding “[Glu4; Lys16,29;Arg18,30; Nle21]ShK-amide (peptide)”, in the experiment with human Kv1.3, the Kv1.3 (IWQ) IC50 was found to be 0.269 nM, the WB (IFNg) IC50 is 1.33 nM and the WB (IL-2) IC50 turned out to be 1.96 nM.

On to “[Glu4;Lys16,29;1-Nal26;Arg30;Nle21]ShK-amide (peptide)”, for which, in the experiment with human Kv1.1, the Kv1.1 (IWQ) IC50 was found to be 3.3 nM. In the experiment with human Kv1.3, this substance returned a Kv1.3 (IWQ) IC50 of 1.66 nM, a WB (IFNg) IC50 of 17.4 nM and a WB (IL-2) IC50 of 10.7 nM.
